Assay results from PMC9631798 (2022).
Values joined by “and” are separate entries in the source; they are usually repeats but may differ in a detail not shown here. Equal entries are not always repeated.

Key:
Biotinylated human IL-2 [1] = biological target: T1, Biotinylated human IL-2 (human, UniProt P60568 21-153, biotin on the biotin acceptor peptide (BirA ligase)); assay: BLI
[2] = biological target: Control (FITC-E2) IC LN35 (human, UniProt P60568 21-153); assay: BLI
F5111.2 IC LN35 = F5111.2 IC LN35 (human, UniProt P60568 21-153); assay: BLI
F5111 IC LN25 = F5111 IC LN25 (human, UniProt P60568 21-153); assay: BLI
[3] = biological target: hIL-2/F5111.2 complex (1:1 molar ratio) (human, UniProt P60568 21-153); assay: BLI
F5111 IC LN35 = F5111 IC LN35 (human, UniProt P60568 21-153); assay: BLI
[4] = biological target: hIL-2/F5111 complex (1:1 molar ratio) (human, UniProt P60568 21-153); assay: BLI
F5111 IC LN15 = F5111 IC LN15 (human, UniProt P60568 21-153); assay: BLI
Biotinylated human IL-2 [5] = biological target: T1, Biotinylated human IL-2; assay: BLI; Fig S1E
[6] = biological target: yeast-displayed hIL-2 (residues 1-133) (human, UniProt P60568 21-153); assay: FACS; yeast surface display
yeast-displayed hIL-2 (residues 1-133), sequence (P60568 21-153): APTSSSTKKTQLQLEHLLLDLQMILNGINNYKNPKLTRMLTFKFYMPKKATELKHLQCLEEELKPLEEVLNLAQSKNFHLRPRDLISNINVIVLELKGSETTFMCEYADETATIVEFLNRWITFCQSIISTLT

T1 sequence (P60568 21-153): as above

Kd (Biotinylated human IL-2 [1])	Kd [2]	Kd (F5111.2 IC LN35)	Kd (F5111 IC LN25)	Kd [3]	Kd (F5111 IC LN35)	Kd [4]	Kd (F5111 IC LN15)	Kd (Biotinylated human IL-2 [5])	Kd [6]	Binder
4.9 nM										F5111.2 Antibody (N297A) (antibody, V domains shown) VH: QLQLQESGPGLVKPSQTLSLTCTVSGGSISSGGYYWSWIRQHPGKGLEWIGYIYKSGSAYYSPSLKSRVTISVDTSKNQFSLKLSSVTAADTAVYYCARTPTVTGDWFDPWGRGTLVTVSS VL: NFMLTQPHSVSESPGKTVTISCTRSSGSIASNYVQWYQQRPGSSPTTVIYEDNQRPSGVPDRFSGSIDSSSNSASLTISGLKTEDEADYYCQTYDSIDVYFGGGTKLTVL
	4.1 nM and 4.4 nM	> 2000 nM	> 2000 nM	> 2000 nM	> 2000 nM	> 2000 nM	210 nM			Biotinylated human IL-2Rβ extracellular domain (residues 1-214) (receptor, biotin on the biotin acceptor peptide (BirA ligase)) AVNGTSQFTCFYNSRANISCVWSQDGALQDTSCQVHAWPDRRRWNQTCELLPVSQASWACNLILGAPDSQKLTTVDIVTLRVLCREGVRWRVMAIQDFKPFENLRLMAPISLQVVHVETHRCNISWEISQASHYFERHLEFEARTLSPGHTWEEAPLLTLKQKQEWICLETLTPDTQYEFQVRVKPLQGEFTTWSPWSQPLAFRTKPAALGKDT
2.7 nM								2.1 nM	0.42 nM	F5111 antibody (antibody, V domains shown) VH: QLQLQESGPGLVKPSQTLSLTCTVSGGSISSGGYYWSWIRQHPGKGLEWIGYIYYSGSTYYNPSLKSRVTISVDTSKNQFSLKLSSVTAADTAVYYCARTPTVTGDWFDPWGRGTLVTVSS VL: NFMLTQPHSVSESPGKTVTISCTRSSGSIASNYVQWYQQRPGSSPTTVIYEDNQRPSGVPDRFSGSIDSSSNSASLTISGLKTEDEADYYCQSYDSSNVVFGGGTKLTVL
	2.5 nM and 3.4 nM	2.4 nM		68 nM	3.2 nM and 3 nM	18 nM	7.5 nM			Biotinylated human IL-2Rα extracellular domain (residues 1-217) (receptor, biotin on the biotin acceptor peptide (BirA ligase)) ELCDDDPPEIPHATFKAMAYKEGTMLNCECKRGFRRIKSGSLYMLCTGNSSHSSWDNQCQCTSSATRNTTKQVTPQPEEQKERKTTEMQSPMQPVDQASLPGHCREPPPWENEATERIYHFVVGQMVYYQCVQGYRALHRGPAESVCKMTHGKTRWTQPQLICTGEMETSQFPGEEKPQASPEGRPESETSCLVTTTDFQIQTEMAATMETSIFTTE
